A word on the Kd: it is the constant that tells how readily two partners part at equilibrium. By koff is commonly meant a measure of how fast the partners let go of each other. Broadly, the kon is the second-order rate constant of association.

Assay [1] deals with T1, cynomolgus 5T4 ectodomain fused to the human IgG1-Fc domain (cynomolgus monkey; human, UniProt Q4R8Y9 35-355).
T1 construct: range 1-355; also called cyno5T4; not shown: Fc constant region from human IgG1
T1 sequence (looked up): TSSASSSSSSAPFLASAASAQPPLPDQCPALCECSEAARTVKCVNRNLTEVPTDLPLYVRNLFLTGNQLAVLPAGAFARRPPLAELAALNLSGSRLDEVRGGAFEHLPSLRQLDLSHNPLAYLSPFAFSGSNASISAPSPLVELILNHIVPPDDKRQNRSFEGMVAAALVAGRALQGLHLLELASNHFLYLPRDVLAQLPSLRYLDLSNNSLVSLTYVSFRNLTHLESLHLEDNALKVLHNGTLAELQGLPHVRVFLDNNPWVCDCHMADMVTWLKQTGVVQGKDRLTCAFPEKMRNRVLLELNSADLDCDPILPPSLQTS
Briefly: SPR (BIAcore), low-density 5T4-Fc surface, pH 7.4. As for the experimental part: (§1) Surface plasmon resonance (SPR) analysis is performed utilizing the BIAcore® to determine the affinity constants for A1-IgG1 and A1-IgG4 binding to either human or cynomolgus 5T4 at pH 6.0 and pH 7.4. BIAcore® technology utilizes changes in the refractive index at the surface layer upon binding of the huA1 antibody variants to the human 5T4 protein immobilized on the surface layer. Binding is detected by SPR of laser light refracting from the surface. Analysis of the signal kinetics on-rate and off-rate allows the discrimination between non-specific and specific interactions. The 5T4 proteins used for this analysis consisted of the human or cynomolgus 5T4 ectodomain fused to the human IgG1-Fc domain and low densities (45.1 and 45.4 RU for human and cynomolgus respectively) are immobilized onto a CM5 chip to accurately measure affinity constants.
(§2) The measurement of specific binding to the 5T4 ectodomain is attained by subtracting binding to a reference surface that had only human IgG1-Fc protein immobilized onto the CM5 chip at the same density to that on the 5T4-Fc surfaces. Next, various concentrations of A1, A1-IgG4, or A3 antibodies in either HBS-EP pH 7.4 or MES-EP pH 6.0 buffer are injected over the surface. The surface is regenerated two times with Glycine pH 1.7+0.05% Surfactant P20 (GE Healthcare, BR-1000-54) between injection cycles.
(In general: SPR reads the build-up and loss of mass on a sensor chip optically.)

Assay [2] deals with T2, human 5T4 ectodomain fused to the human IgG1-Fc domain (human, UniProt Q13641 32-355).
T2 construct: also called hu5T4; 5T4-Fc; not shown: Fc constant region from human IgG1
T2 sequence: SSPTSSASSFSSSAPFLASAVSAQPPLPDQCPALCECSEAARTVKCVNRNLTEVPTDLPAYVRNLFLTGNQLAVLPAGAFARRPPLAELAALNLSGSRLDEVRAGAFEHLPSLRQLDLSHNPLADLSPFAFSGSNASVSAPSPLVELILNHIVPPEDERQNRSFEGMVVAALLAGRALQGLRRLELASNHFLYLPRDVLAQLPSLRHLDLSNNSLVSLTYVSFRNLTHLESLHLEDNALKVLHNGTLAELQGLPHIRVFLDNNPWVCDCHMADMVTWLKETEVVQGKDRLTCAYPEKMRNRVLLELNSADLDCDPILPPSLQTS
Briefly: SPR (BIAcore), low-density 5T4-Fc surface, pH 7.4. The method, then:
as §1, §2

Assay [3] has as its target T3, Human 5T4 antigen on cells (human, UniProt Q13641 32-420).
T3 construct: also called 5T4 oncofetal antigen
T3 sequence: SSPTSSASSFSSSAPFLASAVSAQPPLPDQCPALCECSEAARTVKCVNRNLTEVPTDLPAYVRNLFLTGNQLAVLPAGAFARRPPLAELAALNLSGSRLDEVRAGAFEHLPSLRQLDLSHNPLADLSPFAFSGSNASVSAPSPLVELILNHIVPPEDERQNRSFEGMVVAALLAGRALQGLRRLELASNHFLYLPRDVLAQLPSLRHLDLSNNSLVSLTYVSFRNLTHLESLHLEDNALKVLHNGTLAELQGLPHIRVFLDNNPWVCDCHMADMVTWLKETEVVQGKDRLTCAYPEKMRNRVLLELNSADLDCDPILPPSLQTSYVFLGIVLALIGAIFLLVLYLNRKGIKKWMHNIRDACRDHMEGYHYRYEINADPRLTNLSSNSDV
Briefly: flow cytometry, 10 ug/mL, MDAMD361-DYT2 cells. As for the experimental part:
(§3) Cells expressing the 5T4 antigen, and the negative control Raji cells, are plated at a density of 500,000 cells/well on non-tissue culture treated 96 well plates and kept on ice. Dilutions of the A1 and A1-IgG4 antibodies or A1-mcMMAF ADC are made in 3% bovine serum albumin BSA in Dulbecco's phosphate buffered saline (DPBS) and added to the plate at a final concentration of 10 μg/mL. The plates are then incubated on ice for 1 hour followed by 2 washes. The secondary antibody, PE (phycoerythrin) conjugated Goat Anti-Human IgG Fc is added to the wells. After 30 minutes of incubation at 4 C, the mean fluorescence intensity is then measured using a flow cytometer.
For orientation: A flow cytometer gives signals particle by particle.

Assay [4] concerns the target T1, cynomolgus 5T4 ectodomain fused to the …. Briefly: SPR (BIAcore), immobilized 5T4-Fc, pH 6.0. As for the experimental part:
as §1, §2

Assay [5] concerns the target T2, human 5T4 ectodomain fused to the human …. Nature of the assay: SPR (BIAcore), immobilized 5T4-Fc, pH 6.0. The method, then:
as §1, §2

The target of assay [6] is T3, Human 5T4 antigen on cells. Briefly: flow cytometry, 10 ug/mL, A431 cells. The method, then:
as §3

Assay [7] concerns the target T1, cynomolgus 5T4 ectodomain fused to the …. Nature of the assay: SPR (BIAcore), immobilized 5T4-Fc, pH 7.4. The method, then: as §1, §2
For assay [8], the target named is T2, human 5T4 ectodomain fused to the human …. Nature of the assay: SPR (BIAcore), immobilized 5T4-Fc, pH 7.4. The method, then: as §1, §2
In assay [9] the target is T1, cynomolgus 5T4 ectodomain fused to the …. Nature of the assay: SPR (BIAcore), immobilized 5T4-Fc, pH 7.4. As for the experimental part: as §1, §2
This is another data set of the same source.

Assay [10] deals with T2, human 5T4 ectodomain fused to the human …. Nature of the assay: SPR (BIAcore), immobilized 5T4-Fc, pH 7.4. As for the experimental part: as §1, §2
This is another data set of the same source.

The target of assay [11] is T3, Human 5T4 antigen on cells. Nature of the assay: flow cytometry, 10 ug/mL, MDAMB468 cells. As for the experimental part: as §3
For assay [12], the target named is T1, cynomolgus 5T4 ectodomain fused to the …. Nature of the assay: SPR (BIAcore), immobilized 5T4-Fc, pH 6.0. The method, then:
as §1, §2
The source holds these as a separate data set.

Assay [13] deals with T2, human 5T4 ectodomain fused to the human …. Briefly: SPR (BIAcore), immobilized 5T4-Fc, pH 6.0. As for the experimental part: as §1, §2
The source holds these as a separate data set.

For a further assay, the target named is T4, mouse 5T4 (mouse, UniProt Q9Z0L0 32-361, limits assumed).
T4 sequence (looked up): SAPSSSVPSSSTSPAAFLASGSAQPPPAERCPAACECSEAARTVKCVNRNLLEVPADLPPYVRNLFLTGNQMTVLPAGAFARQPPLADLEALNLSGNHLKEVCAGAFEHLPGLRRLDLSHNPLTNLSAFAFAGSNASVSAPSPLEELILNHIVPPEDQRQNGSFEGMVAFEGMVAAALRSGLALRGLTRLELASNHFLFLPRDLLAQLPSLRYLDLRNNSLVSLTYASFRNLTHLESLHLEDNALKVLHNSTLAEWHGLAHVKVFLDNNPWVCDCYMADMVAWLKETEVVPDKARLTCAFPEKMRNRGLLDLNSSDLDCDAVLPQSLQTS
Briefly: ELISA (Example 7). On the technique in general: An ELISA detects its analyte on a solid surface through an enzyme-linked reagent.

Assay [14] has as its target T1, cynomolgus 5T4 ectodomain fused to the …. Nature of the assay: SPR (BIAcore), low-density 5T4-Fc surface, pH 6.0. As for the experimental part: as §1, §2
Assay [15] has as its target T2, human 5T4 ectodomain fused to the human …. Briefly: SPR (BIAcore), low-density 5T4-Fc surface, pH 6.0. The method, then: as §1, §2
For assay [16], the target named is T3, Human 5T4 antigen on cells. Briefly: flow cytometry, 10 ug/mL, PC3mm2 cells. As for the experimental part: as §3
The target of assay [17] is T1, cynomolgus 5T4 ectodomain fused to the …. Nature of the assay: SPR (BIAcore), immobilized 5T4-Fc, pH not printed in this row (7.4 by the order of the table); row shifted one column to the left; pH 7.4. As for the experimental part: as §1, §2
For assay [18] the target is unchanged. Briefly: SPR (BIAcore), immobilized 5T4-Fc, pH not printed in this row (7.4 by the order of the table); row shifted one column to the left; pH 7.4 (pH cell missing; inferred from the order of the table). The method, then: as §1, §2

B1: A1 (a humanized anti-5T4 IgG1 antibody) (antibody)
heavy: not shown
light: DIQMTQSPSSLSASVGDRVTITCKASQSVSNDVAWYQQKPGKAPKLLIYFATNRYTGVPSRFSGSGYGTDFTLTISSLQPEDFATYYCQQDYSSPWTFGQGTKVEIKRTVAAPSVFIFPPSDEQLKSGTASVVCLLNNFYPREAKVQWKVDNALQSGNSQESVTEQDSKDSTYSLSSTLTLSKADYEKHKVYACEVTHQGLSSPVTKSFNRGEC
notes: also called A1-IgG1; A1 antibody
Regarding B1, the “fold better binding compared to A1-IgG4” value worked out at 1.2 fold in [1] and 1.7 fold in assay [14]. For the same molecule, the “fold higher affinity relative to A1-IgG4” value was determined as 1.2 fold in assay [2] and 1.5 fold in [15]. Also, the “Mean Fluorescent Intensity” value was 7000 in assay [3], 3900 in assay [6], 3500 in assay [11] and 3400 in assay [16]. Further, the Kd in assay [4] is 2.76 nM; in assay [5], 1.06 nM; in assay [7] it was 1.8 nM; in assay [8] it was 0.48 nM; in [9], 1.8 nM; in assay [10], 0.48 nM. The Kd in assay [12] stood at 2.76 nM; in assay [13], 1.06 nM. Besides, the off-rate (koff) in [4] worked out at 0.000641 s⁻¹; in [5], 0.000459 s⁻¹; in assay [7], 0.000273 s⁻¹; in assay [8] it was 0.000132 s⁻¹; in assay [9], 0.000273 s⁻¹; in [10], 0.000132 s⁻¹. The off-rate constant (koff) was found to be 0.000641 s⁻¹ in assay [12] and 0.000459 s⁻¹ in [13]. For the same molecule, the kon was found to be 233000 M⁻¹ s⁻¹ in assay [4]; 431000 M⁻¹ s⁻¹ in [5]; 151000 M⁻¹ s⁻¹ in assay [7]; 275000 M⁻¹ s⁻¹ in assay [8]; 151000 M⁻¹ s⁻¹ in assay [9]; 275000 M⁻¹ s⁻¹ in assay [10]. For the same molecule, the kon in assay [12] was found to be 233000 M⁻¹ s⁻¹; in assay [13], 431000 M⁻¹ s⁻¹. In addition, the binding result in the assay with mouse 5T4 is listed as “no binding”.

B2: A1-IgG4 (a humanized anti-5T4 IgG4 antibody) (antibody)
heavy: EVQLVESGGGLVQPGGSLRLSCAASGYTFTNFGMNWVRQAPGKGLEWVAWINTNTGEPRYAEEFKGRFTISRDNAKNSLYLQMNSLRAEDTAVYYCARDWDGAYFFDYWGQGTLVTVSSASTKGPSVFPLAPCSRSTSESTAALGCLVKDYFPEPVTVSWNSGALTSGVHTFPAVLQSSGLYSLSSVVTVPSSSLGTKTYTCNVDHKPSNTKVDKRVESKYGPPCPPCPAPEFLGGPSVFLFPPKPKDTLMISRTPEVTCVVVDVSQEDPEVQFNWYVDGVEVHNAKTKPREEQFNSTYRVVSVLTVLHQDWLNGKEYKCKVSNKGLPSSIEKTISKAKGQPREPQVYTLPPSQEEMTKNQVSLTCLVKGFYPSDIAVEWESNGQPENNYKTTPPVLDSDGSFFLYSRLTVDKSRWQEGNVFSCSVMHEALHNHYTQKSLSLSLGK
light: B1 light
notes: Same variable domains as A1, human IgG4m heavy chain; also called A1-IgG4 Ab; Humanized A1 human IgG4m
B2: the “Mean Fluorescent Intensity” value stood at 5500 in assay [3], 2400 in assay [6], 2500 in assay [11] and 2100 in assay [16]. The Kd in assay [4] turned out to be 4.7 nM; in [5], 1.43 nM; in assay [7], 2.11 nM; in assay [8] it was 0.52 nM. Further, the koff in assay [4] worked out at 0.00095 s⁻¹; in assay [5], 0.000893 s⁻¹; in assay [7], 0.000382 s⁻¹; in assay [8], 0.000172 s⁻¹. Moreover, the kon in assay [4] was found to be 202000 M⁻¹ s⁻¹; in [5], 626000 M⁻¹ s⁻¹; in assay [7], 181000 M⁻¹ s⁻¹; in assay [8] it was 328000 M⁻¹ s⁻¹.

B3: A3 (a mouse/human chimeric antibody) (antibody, human IgG1, kappa, V domains shown)
VH: EVQLVESGGGLVQPKGSLKLSCAASGFTFNTYAMNWVRQAPGKGLEWVARIRSKSNNYATYYADSVKDRFTISRDDSQSMLYLQMNNLKTEDTAMYYCVRQWDYDVRAMNYWGQGTLVTVSS
VL: DIVMTQSHIFMSTSVGDRVSITCKASQDVDTAVAWYQQKPGQSPKLLIYWASTRLTGVPDRFTGSGSGTDFTLTISNVQSEDLADYFCQQYSSYPYTFGQGTKLEIKR
notes: also called Chimeric A3; muA3-huIgG1
With B3, the Kd in assay [17] was 0.82 nM; in assay [10], 0.17 nM; in assay [12], 0.41 nM; in assay [13], 0.12 nM. Besides, the koff in [17] came to 0.000162 s⁻¹; in assay [10], 3.06e-05 s⁻¹; in [12], 0.000187 s⁻¹; in assay [13] it was 4.17e-05 s⁻¹. Moreover, the kon in [10] came out at 179000 M⁻¹ s⁻¹; in assay [18], 198000 M⁻¹ s⁻¹; in assay [12], 458000 M⁻¹ s⁻¹; in assay [13] it was 351000 M⁻¹ s⁻¹. In addition, in the assay with mouse 5T4, the binding result was “no binding”.

These data come from US20170319711A1 (Pfizer, published 2017).
